Experimental data reported in US6641818.
pKd: −log10 of the molar value.

Columns and labels:
HveC(346t) (human) [1] = target: HveC(346t) (human) (UniProt Q15223); assay: SPR (Biacore X), HveC(346t) amine-coupled to the chip, gD in flow, KD = koff/kon
HveC(346t) (human) [2] = target: HveC(346t) (human) (UniProt Q15223); assay: gel filtration, from the size of the complex
HveC(143t) (human) [3] = target: HveC(143t) (human) (UniProt Q15223); assay: gel filtration, from the size of the complex
HveC(245t) (human) = HveC(245t) (human) (UniProt Q15223); assay: gel filtration, from the size of the complex
HveC(143t) (human) [4] = target: HveC(143t) (human) (UniProt Q15223); assay: SPR (Biacore X), HveC(143t) amine-coupled to the chip, gD in flow, KD = koff/kon
HveC(346t) (human) [5] = target: HveC(346t) (human) (UniProt Q15223); assay: SPR (Biacore X)
HveC(143t) (human) [6] = target: HveC(143t) (human) (UniProt Q15223); assay: silver-stained PAGE of the complex fraction against standards
HveC(143t) (human) [7] = target: HveC(143t) (human) (UniProt Q15223); assay: SPR (Biacore X), HveC(143t) amine-coupled to the chip, gD in flow, 1:1 Langmuir global fit
HveC(346t) (human) [8] = target: HveC(346t) (human) (UniProt Q15223); assay: SPR (Biacore X), HveC(346t) amine-coupled to the chip, gD in flow, 1:1 Langmuir global fit
HveC(346t) (human) [9] = target: HveC(346t) (human) (UniProt Q15223); assay: silver-stained gel analysis of the complex formed in excess gD(285t)
HveC(346t) (human) [10] = target: HveC(346t) (human) (UniProt Q15223); assay: gel filtration at various molar ratios
HveC(346t) (human) [11] = target: HveC(346t) (human) (UniProt Q15223); assay: silver-stained SDS-PAGE of the complex fraction
HveA(200t) (human) [12] = target: HveA(200t) (human) (UniProt Q92956); assay: ELISA, HveAt on the plate
HveC(346t) (human) [13] = target: HveC(346t) (human) (UniProt Q15223); assay: ELISA, HveCt on the plate
HveC(346t) (human) [14] = target: HveC(346t) (human) (UniProt Q15223); assay: gel filtration
HveA(200t) (human) [15] = target: HveA(200t) (human) (UniProt Q92956); assay: ELISA, apparent affinity from half-maximal binding, HveAt on the plate
HveC(346t) (human) [16] = target: HveC(346t) (human) (UniProt Q15223); assay: ELISA, apparent affinity from half-maximal binding, HveCt on the plate

UniProt Q92956, sequence (Q92956 39-202): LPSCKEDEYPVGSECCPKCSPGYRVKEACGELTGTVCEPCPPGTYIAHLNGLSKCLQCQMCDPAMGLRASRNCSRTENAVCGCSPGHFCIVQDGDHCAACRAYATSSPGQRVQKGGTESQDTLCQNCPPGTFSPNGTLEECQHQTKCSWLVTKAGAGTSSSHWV

Substance	pKd (HveC(346t) (human) [1])	pKd (HveC(143t) (human) [4])	koff (HveC(143t) (human) [7]) [s⁻¹]	kon (HveC(143t) (human) [7]) [M⁻¹ s⁻¹]	koff (HveC(346t) (human) [8]) [s⁻¹]	kon (HveC(346t) (human) [8]) [M⁻¹ s⁻¹]	other results
gD(285t) (ligand)	7.42	7.46	0.013	370000	0.0073	190000	stoichiometry (gD:HveC) (HveC(346t) (human) [2]): 2 gD per HveC; stoichiometry (gD:HveC) (HveC(143t) (human) [3]): 1 gD per HveC; stoichiometry (gD:HveC) (HveC(245t) (human)): 1 gD per HveC; fold increase in affinity over gD(306t) (HveC(346t) (human) [5]): > 80 fold; ratio in the complex (HveC(143t) per gD(285t)) (HveC(143t) (human) [6]): 1; ratio in the complex (HveC(346t) (human) [9]): 2 gD per HveC
gD-1(A290-299t) (ligand)	–	–	–	–	–	–	stoichiometry (gD:HveCt) (HveC(346t) (human) [10]): 2 gD per HveCt; gD:HveCt ratio in the complex (HveC(346t) (human) [11]): 1.6 gD per HveCt; fold increase in binding compared to wild type gD(306t) (HveA(200t) (human) [12]): 100 fold; fold increase in binding compared to wild type gD(306t) (HveC(346t) (human) [13]): 100 fold; stoichiometry (gD:HveC) (HveC(346t) (human) [14]): 2 gD per HveC
gD(306t)rid1 (ligand)	6.77	6.70	0.008	39000	0.0047	27000	fold increase in affinity compared to gD(306t) (HveC(346t) (human) [5]): 20 fold
gD-1(306t) KOS (ligand)	5.49	5.92	0.011	9000	0.007	2200	pKd (HveA(200t) (human) [15]): 6.52; gD concentration at saturation (HveA(200t) (human) [12]): 2 to 3 µM; gD concentration at saturation (µM (printed RM)) (HveC(346t) (human) [13]): 10 to 20; pKd (HveC(346t) (human) [16]): 6.00
